B1: 19F3 antibody (antibody, V domains shown)
VH: EVQLQLSGADLVKPGASVKLSCTASGFNIKDSYIHWVKQRPEPGLEWIGRIDPANGNTKYDPKFQGKATITADTSSNTAYLQLTSLTSEDTAVYYCARDVVALDYWGQGTTLTVSS
VL: QIVLTQSPAIMSASPGEKVTMTCSASSSVSYMYWYQQKPGSSPRLLIYDTSNLASGVPVRFSGSGSGTSYSLTISRMEAEDAATYYCQQWSSYPLTFGAGTKLELKR
notes: also called mAb #19F3; hybridoma CNCM I-4522
B2: biotinylated monoclonal antibody #18G6 (antibody, V domains shown)
VH: QVQLQQSGPELVKPGASVKMSCKASGYTFTDYVITWVKQRTGQGLEWIGEIYPGSGSTYYDEKFKGKATLTADKSSNTAYMQLSSMTSEDSAVYFCARWFPYFDYWGQGTTLTVSS
VL: QIVLTQSPAIMSASPGEKVTISCSASSSVSYMYWYQQKPGSSPKPWIYRTSNLASGVPARFSGSGSGTSYSLTISSMEAEDAATYYCQQYHSYPLTFGAGTKLELKR
modifications: biotinylated with a Pierce kit (ref. 21435); sites not stated
notes: also called #18G6-Biot; 18G6-Biot
B3: 18G6 antibody (antibody, V domains shown)
VH: QVQLQQSGPELVKPGASVKMSCKASGYTFTDYVITWVKQRTGQGLEWIGEIYPGSGSTYYDEKFKGKATLTADKSSNTAYMQLSSMTSEDSAVYFCARWFPYFDYWGQGTTLTVSS
VL: QIVLTQSPAIMSASPGEKVTISCSASSSVSYMYWYQQKPGSSPKPWIYRTSNLASGVPARFSGSGSGTSYSLTISSMEAEDAATYYCQQYHSYPLTFGAGTKLELKR
notes: also called mAb #18G6; hybridoma CNCM I-4521
B4: biotinylated monoclonal antibody #19F3 (antibody, V domains shown)
VH: EVQLQLSGADLVKPGASVKLSCTASGFNIKDSYIHWVKQRPEPGLEWIGRIDPANGNTKYDPKFQGKATITADTSSNTAYLQLTSLTSEDTAVYYCARDVVALDYWGQGTTLTVSS
VL: QIVLTQSPAIMSASPGEKVTMTCSASSSVSYMYWYQQKPGSSPRLLIYDTSNLASGVPVRFSGSGSGTSYSLTISRMEAEDAATYYCQQWSSYPLTFGAGTKLELKR
modifications: biotinylated with a Pierce kit (ref. 21435); sites not stated
notes: also called #19F3-Biot; 19F3-Biot

Assays:
[1] = target: T1, recombinant human sPLA2-V (human, UniProt P39877 21-138); test: indirect ELISA on coated recombinant human sPLA2-V, one-site saturation fit (relative Kd)
T1 construct: The cDNA for the mature enzyme was cloned in frame to an initiator Met codon; also called hGV; human PLA2-V
T1 sequence: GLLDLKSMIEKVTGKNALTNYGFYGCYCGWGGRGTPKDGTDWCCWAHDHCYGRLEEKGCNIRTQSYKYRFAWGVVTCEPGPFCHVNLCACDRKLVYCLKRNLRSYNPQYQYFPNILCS

[2] = target: T1, recombinant human sPLA2-V; test: indirect ELISA on coated recombinant human sPLA2-V, anti-mouse IgG-HRP detection, one-site saturation fit
[3] = target: T1, recombinant human sPLA2-V; test: indirect ELISA on coated recombinant human sPLA2-V, streptavidin-HRP detection, one-site saturation fit

Row | Binder | Kd [1] [nM] | Kd [2] [nM] | Kd [3] [nM]
1 | B1 | 0.0842 | 0.089 | –
2 | B2 | – | – | 0.31
3 | B3 | 0.305 | 0.53 | –
4 | B4 | – | – | 0.0082

From US20140356379A1 (CENTRE NATIONAL DE LA RECHERCHE SCIENTIQUE CNRS, published 2014)
